Measurements published in publication PMC7593903.

target: T1, ZafA (Aspergillus fumigatus (FGSC A1163 akuB(KU80)-delta pyrG1 is the study strain; cDNA source 'fungal cDNA')) (UniProt A3QX02); assay: EMSA; settings: 10 mM Tris-HCl pH 8.0, 50 mM NaCl, 1 mM MgCl2, 500 uM EDTA, 500 uM DTT, 4% glycerol; 500 ng ZafA, 5 ng probe; 30 min at 25 C; Zn/Cu added 10 min after start of …
T1 sequence: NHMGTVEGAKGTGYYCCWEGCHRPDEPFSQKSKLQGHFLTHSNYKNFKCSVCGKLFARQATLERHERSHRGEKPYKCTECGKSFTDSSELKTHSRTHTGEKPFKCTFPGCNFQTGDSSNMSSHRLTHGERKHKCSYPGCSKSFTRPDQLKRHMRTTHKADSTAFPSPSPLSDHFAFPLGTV

Sequence | binding
AAGGGCCCAGGGCCTGTCTTGTTGTACGACTTCACTTTCTCCCAGGGTGCCACTGCTTGCTATCTCTATGTAGATAACCGCTGTCTTTCCTCTTTTTTTGACCCTTTCTTCTATTGCTCTGGTCTGCT (double strand) [CtrC promoter EMSA probe, 128 bp] | binds
CTCAAAGCTCGCTCATCGGATTTTTGATTATCAGTTTTGCGAGACCAAGCATGATAGTGACAGAGCATTCAAGGTGAGAATGTGAAGAATGCGTGGCGGCGTAGCATTCTTACT (double strand) [CtrA2 promoter EMSA probe, 114 bp] | no binding
TACCAGGGCCCCTTTCCCTCAAGTTGCTCGCACAGATCTGGATGTTACTTTCATCGAATATATACACGTGGGAAGCTCCCAAGGTCCTCTTGGAT (double strand) [ZafA promoter EMSA probe, 95 bp] | binds
TGCCGCCATTGTTCAGCAGTGCGGTGCTGTCAAGGTCAAGGTCAAGGACGGCCTTCTCCAAGGATGTCACATACAAAGGGAATAGACTGAATAAATCATTTCCTCGGCAACGATCCGA (double strand) [CtrA1 promoter EMSA probe, 118 bp] | no binding

target: T1, ZafA (Aspergillus fumigatus (FGSC A1163 akuB(KU80)-delta pyrG1 is the study strain; cDNA source 'fungal cDNA')); assay: competition; settings: 10 mM Tris-HCl pH 8.0, 50 mM NaCl, 1 mM MgCl2, 500 uM EDTA, 500 uM DTT, 4% glycerol; 500 ng ZafA, 5 ng probe; 30 min at 25 C; Zn/Cu added 10 min after start of …

Sequence | binding
AAGGGCCCAGGGCCTGTCTTGTTGTACGACTTCACTTTCTCCCAGGGTGCCACTGCTTGCTATCTCTATGTAGATAACCGCTGTCTTTCCTCTTTTTTTGACCCTTTCTTCTATTGCTCTGGTCTGCT (double strand) [CtrC promoter fragment, unlabeled] | binds
AGCAGACCAGAGCAATAGAAGAAAGGGTCAAAAAAAGAGGAAAGACAGCGGTTATCTACATAGAGATAGCAAGCAGTGGCTGGGACGGAGAAAGTGAAGTCGTACAACAAGACAGGCCCTGGGCCCTT (double strand) | no binding
